The nature of this series: amyloid nucleation score (Sup35N fusion, yeast selection) (log enrichment); library NNK3; higher = more nucleation; inactive = no reads after selection. Put shortly: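 DiMSum was used to calculate nucleation scores as log enrichment of output over input reads, centred on the mode score of non-aggregating sequences. Sequences with fewer than 100 input reads were not scored. Input and output came from Illumina sequencing of plasmid inserts in psi-negative yeast expressing peptides of 20 random codons fused to Sup35N, induced 24 hours with 100 μM copper sulfate and then grown 7 days at 30°C on medium lacking adenine and uracil.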

± gives the uncertainty stated by the source.

With DEANRYPRYLYILERLAYRK, the amyloid nucleation score entry was “inactive”.
The same measure for WRFRIVR: “inactive”; for VENKMFDRGGFYVWMCGLSD: “inactive”.
The same measure for YAFGGQLFAFVLRNENIFSG: 1.37 ± 0.085; for SYGLTHMSKAIGDHRVVIAT: “inactive”; for LSMFGGNASALL: “inactive”.
The same measure for NSCLV: “inactive”; for LIRHFNKRVTSCNVVLLYNG: “inactive”; for LSGYYEQVVWVNRSSNSTMN: “inactive”.
Consider TTLQEDGYRDACGYMASVFW, for which the amyloid nucleation score entry was “inactive”.
The value for MRCGRIDGDFGFAPRLRGTM was 0.902 ± 0.14.
As for DVNCALYGKGLDVCRI, the amyloid nucleation score result was “inactive”.
The same measure for YNLDDIDSITLYLAVSLCKV: “inactive”.
The same measure for WKRNI: 0.172 ± 0.71; for VFVFDVLFGLLNMANFREVD: -0.713 ± 0.88.
LFVYSWKRFDGNWNKLSWNR: the amyloid nucleation score result was “inactive”.
The value for NNVVHEVNFLELRLRVILGY was “inactive”.
The value for AFTGTDSKF was “inactive”; that for YVQSLNR was “inactive”.
The same measure for LFTLTWSWQLKGFFYYHGYV: “inactive”.
Turning to MLNSLFAMNTILKW, the amyloid nucleation score stood at 0.876 ± 0.083.
The same measure for SAIFDGEQERSRDMLL: “inactive”.
Take CKDSDSTIPRMLLLRLKTEL: the amyloid nucleation score entry was “inactive”.
The value for MKFFVNLAYIFFRFFSLRLL was “inactive”.
The same measure for ETLWVKVYLTYLNMTRMSGY: “inactive”; for WRYYRAYKVITHIKFLFFTE: “inactive”.
Consider VGYMALQETILVIVDDGVTE, for which the amyloid nucleation score entry is “inactive”.
The value for GIMSCQ was 0.021 ± 0.88; that for TGYWRIFSCSCLIVCVRLSV was “inactive”; that for NSMRVKVRTLTVYISEFTVS was “inactive”.
The value for LIRCLVRSNVEFNNMGWWSS was “inactive”.
The same measure for SNYVMKVYRACHQVQPTISA: “inactive”; for CGVYPYPWVVMFTDCKMNRW: “inactive”; for SSYSWMGVFIYLDRIINYTH: -0.339 ± 0.63.
In the case of LRATNRGVMLNRFVSTMDKS, the amyloid nucleation score entry is “inactive”.
The value for GSSYTGTEVVCKLDFSHVFR was 0.92 ± 0.13; that for FIQWQSESVYIAYSNFTSSM was “inactive”.
The value for LDSGFICMTELIGVVPH was “inactive”; that for LKSCGMRVSKCCFIDICELC was 0.022 ± 0.75; that for STDWDFHMRTFPGHVTKCWK was “inactive”.
For SRTLTVYRVCHHIESSTNNF, the amyloid nucleation score entry is “inactive”.
As for SYYTISLRMSFTTYFCLKMS, the amyloid nucleation score stood at 0.665 ± 0.13.
The same measure for HILWHTSSSGELLPMSP: “inactive”; for YCAFLTNPHVLDFSMNCCKL: 2.29 ± 0.059.
The value for LICYQDLRLLAPWVQG was “inactive”; that for IYCTFAAFSHCQQWKNLFWR was -0.456 ± 1.1.
The value for PGFINFRGVTGKSLTYSILI was “inactive”; that for WKPCS was “inactive”; that for FMYRTDRYHVRGVITWRLSM was “inactive”.
Turning to PFGVFHSSATTKRHFYMVGV, the amyloid nucleation score entry was “inactive”.
The same measure for IPGAVISEYYKSYRSSTIPP: “inactive”.
The value for YWFGWKGGRSVRRVSWSADW was 0.13 ± 0.66; that for KILFILISFLWMLFLVWNFN was 1.48 ± 0.1.

For the origin of these results see the supplement of paper PMC12042874.
